Test results taken from patent publication US20210162028A1, “Methods for Inducing Intermittent Fasting and Modulating Autophagy” (The Hong Kong Polytechnic University, priority 2019, published 2021).
Entries after “also recorded” stand apart in the source; their conditions may differ.

Tests used:
hepatocellular carcinoma = assay: Frequency of hepatocellular carcinoma at autopsy; format: in vivo, mouse
From the text: Development of neoplasm in the liver is one of the major characteristics of aging in C57BL/6J male mice with long-term feeding on a HFD, which may be related to the development of severe non-alcoholic fatty liver disease. Treatment with N-ABD094-rhArg [SEQ ID NO: 50] can effectively reverts hepatic steatosis and lower serum concentrations of liver damage biomakers ALT and AST (FIG. 7). Autopsy performed at the end of experiment confirmed the presence of hepatocellular carcinoma (FIG. 28A) in around 40% of C57BL/6J male mice that had been fed on a HFD for 46 weeks (12+34 weeks) starting from 5-week old [HFD (vehicle) group in FIG. 1] (FIG. 28B). The incidence rate even increased to 100% in mice fed on the HFD for 61 weeks (12+49 weeks) [HFD (vehicle) group in FIG. 3] (FIG. 28C). […] These findings support that rhArg has potent effects on prevention of liver cancer.

[1] = Half-life / therapeutic duration in circulation; parameters: species or system mice; conditions: mouse, in vivo
From the text: As used herein, the term “half-life” or “½-life” refers to the time that would be required for the concentration of an agent, e.g., a fusion protein or arginine depleting agent as described herein, to fall by half in vitro or in vivo, for example, after injection into a mammal. In certain instances, the concentration of plasma arginine, after injection, is used herein as a proxy indicator of the half-life of the agent. In such instances, the term “therapeutic duration” is used to refer to the length of time a specified dosage of the arginine depleting agent is able to maintain the plasma concentration of arginine below a specified threshold concentration that a desired therapeutic effect is observed. In certain embodiments, the threshold concentration of plasma arginine is below 50 μM, below 40 μM, below 30 μM, below 20 μM, below 10 μM, below 5 μM, below 3 μM, or at a concentration below the detection limit of conventional analytical instrumentation.
Importantly, the present invention used a new ABD fusion approach to join an ABD and an arginase together so that arginase activity can be retained. Stable and soluble arginase-ABD fusion molecules that can bind to FcRn in a pH-dependent manner were successfully generated, allowing for efficient endosomal recycling. […] Taken together, a variety of different approaches are available for fine-tuning the pharmacokinetic properties of arginases, ensuring appropriate residence time in circulation for different disease conditions. Another key issue in the development of any therapeutic protein is to minimize immunogenicity to avoid adverse effects. Thus, the observed low immunogenicity of human arginase and the successful deimmunization of ABD (e.g. ABD094), which was also used in the present disclosure as gene fusion partner to extend the in vivo half-life, are important.

[2] = Insulin tolerance test (ITT); format: in vivo, mouse
From the text: In terms of reversing insulin resistance on pre-existing obese mice, insulin tolerance test (ITT) was employed (FIG. 59).
In terms of reversing insulin resistance on pre-existing obese mice, insulin tolerance test (ITT) was employed (FIG. 68A).

brown adipocyte = assay: Transmission electron microscopy of interscapular brown adipose tissue; format: in vivo, mouse; conditions: HFD-fed male mice, 600 U once a week, 4 weeks
From the text: FIG. 52 illustrates the interscapular brown adipose tissue (iBAT) examined by transmission electron microscopy at Day 3 and Day 7 of a 7-day intermittent fasting cycle after N-ABD094-rhArg injection. (A) The BAT of HFD-fed male mice administered with 600 U N-ABD094-rhArg (SEQ ID NO: 50) [HFD (rhArg) group] once a week for 4 weeks, in comparison to that of HFD-fed mice treated with vehicle [HFD (vehicle) group] […] (C) As examined under 5000× magnification, autophagosome engulfed the lipid droplet and breaking into tiny particles.
After prolonged feeding on a HFD, there was a further increase in the size (FIG. 53A) and weight of the interscapular BAT (FIG. 53B) in vehicle-treated DIO mice [HFD (vehicle) group] in comparison to the lean control mice [CD (vehicle) group], which was correlated with the presence of massive amount of enlarged white-like unilobular cells (FIG. 53A). As observed under transmission electron microscopy, brown adipocyte in mice fed with HFD [HFD (vehicle) group] had massive enlarged lipid droplets (FIG. 52A). […] Many autophagosomes were actively forming and engulfing the lipid droplets (FIG. 52B). The autolysosome was also found to be breaking down small lipid droplets, mixing with plenty of lysosomes in the structure (FIG. 52C).

[3] = Liver and kidney damage biomarkers (serum ALT/AST, urine albumin-to-creatinine); format: in vivo, mouse; conditions: DIO C57BL/6J male mice on HFD; about 600 U once a week, 34 weeks
From the text: Other than WAT and BAT, obesity is associated with excessive accumulation of lipids in the liver (hepatic steatosis). Indeed, the liver of vehicle-treated DIO mice was markedly enlarged (FIG. 7A), with a mass about 3 times (4.68 g) that of the lean control (1.73 g) (FIG. 7B).
Other than liver, obesity is also commonly associated with lipid accumulation in the kidney (renal steatosis) and heart (cardiac steatosis), causing lipotoxicity and dysfunction of these organs. Indeed, there was an increase in kidney and heart mass in DIO mice treated with vehicle (FIG. 8A and FIG. 9A).

[4] = Hepatic steatosis (oil Red O / H&E staining, liver triglyceride); format: in vivo, mouse; conditions: DIO C57BL/6J male mice on HFD; for Lipid in liver (H&E staining): 11 weeks after treatment
[5] = Insulin tolerance test (ITT); format: in vivo, mouse; conditions: 17-month old C57BL/6J male mice on chow diet; once a week; at 13 weeks
[6] = Inverted grid hanging test; format: in vivo, mouse
[7] = Glucose tolerance test (GTT); format: in vivo, mouse

B1: N-ABD094-rhArg: recombinant human arginase fused to albumin binding domain ABD094 (SEQ ID NO: 50); engineered long-acting arginine-depleting enzyme (protein)
chain: MHHHHHHDEAVDANSLAEAKEAANAELDSYGVSDFYKRLIDKAKTVEGVEALKDAILAALPSGSNNNNNNGSGGMSAKSRTIGIIGAPFSKGQPRGGVEEGPTVLRKAGLLEKLKEQECDVKDYGDLPFADIPNDSPFQIVKNPRSVGKASEQLAGKVAEVKKNGRISLVLGGDHSLAIGSISGHARVHPDLGVIWVDAHTDINTPLTTTSGNLHGQPVSFLLKELKGKIPDVPGFSWVTPCISAKDIVYIGLRDVDPGEHYILKTLGIKYFSMTEVDRLGIGKVMEETLSYLLGRKKRPIHLSFDVDGLDPSFTPATGTPVVGGLTYREGLYITEEIYKTGLLSGLDIMEVNPSLGKTPEEVTRTVNTAVAITLACFGLAREGNHKPIDYLNPPK
modifications: N-ABD094-rhArg, Synthesized in the Lab
notes: engineered long-acting arginine-depleting enzyme
Hepatocellular carcinoma; DIO C57BL/6J male mice on HFD, weekly for 34 weeks, vehicle around 40%
  Development of hepatocellular carcinoma: none of the mice developed hepatocellular carcinoma
Hepatocellular carcinoma; DIO C57BL/6J male mice on HFD, weekly for 49 weeks, vehicle 100%
  Development of hepatocellular carcinoma: none of the mice developed hepatocellular carcinoma
Hepatocellular carcinoma; DIO ICR female mice on HFD, weekly for 56 weeks, vehicle over 30%
  Development of hepatocellular carcinoma: none of the mice in HFD (rhArg) group developed hepatocellular carcinoma; also recorded: effectively prevent the development of hepatocellular carcinoma
[1]
  Therapeutic duration (and half-life): much longer than BHA and BAH
[2]; 16-month old DIO C57BL/6J male mice on HFD, once a week, at 9 weeks
  Insulin sensitivity in ITT: markedly reverse pre-existing insulin resistance; also recorded: effectively reverse insulin resistance
[2]; DIO C57BL/6J male mice on HFD, 300 U/week rhArg and/or 300 mg/kg metformin, after 6 weeks
  Insulin sensitivity in ITT: marginal effect on improving insulin sensitivity but not reach statistical significant
[2]; DIO C57BL/6J male mice on HFD, 600 U once a week, after 2 weeks (reduced daily food intake experiment)
  Insulin sensitivity in ITT: marked increase in insulin sensitivity by 2 weeks after treatment
[2]; DIO C57BL/6J male mice on HFD, 600 U once a week, at 2 and 4 weeks (artificial IF experiment)
  Insulin sensitivity in ITT: reversal of insulin resistance and marked increase in insulin sensitivity by 2 weeks after treatment; also recorded: significant improvement in insulin sensitivity by 2 weeks
[2]; DIO C57BL/6J male mice on HFD, about 600 U once a week, at 16 and 32 weeks
  Insulin sensitivity in ITT: complete reversion of insulin resistance; also recorded: effectively reverse insulin resistance
[2]; DIO C57BL/6J male mice on HFD, rhArg weekly and/or 0.33 mg/day RA, after 6 weeks
  Insulin sensitivity in ITT: marginal effect on improving insulin sensitivity but not reach statistical significant
[2]; DIO ICR female mice on HFD, once a week, at 15 and 31 weeks
  Insulin sensitivity in ITT: better insulin sensitivity than age-matched mice in CD (vehicle) group
Brown adipocyte
  TEM of BAT, Day 3: autophagy/lipophagy: active lipophagy at Day 3
  TEM of BAT, Day 7: autophagosomes and autolysosomes: continuous active autophagy (lipophagy) was taking place; also recorded: autophagosome and autolysosome numbers had prominently reduced by Day 7
Brown adipocyte; compared with Day 3
  TEM of BAT, Day 7: mitochondria: relatively large amount of mitochondria; also recorded: an increase in mitochondria number was observed
[3]
  Ratio of albumin-to-creatinine in urine: levels similar to the age-matched lean control mice
  Serum concentrations of ALT and AST: restored to levels comparable to the lean control mice
[4]; 600 U once a week, 12 weeks
  Lipid droplets in liver (oil Red O): dramatic clearance of lipid droplets
  Liver triglyceride concentrations: reduced to a level similar to the lean control
[4]; rhArg and/or RA
  Lipid in liver (H&E staining): significant effect on diminishing lipid in liver
[4]; rhArg and/or metformin
  Lipid in liver (H&E staining): slight effect of diminishing lipid in liver
[5]
  Insulin sensitivity in ITT: significantly improve insulin sensitivity; also recorded: effectively improve insulin sensitivity
[6]; DIO C57BL/6J male mice on HFD, weekly for 42 weeks
  Inverted grid hanging test: endurance (latency to fall): endurance even higher than mice in CD (vehicle) group
[6]; DIO ICR female mice on HFD, weekly, at 54 weeks
  Inverted grid hanging test: performance: significantly better than mice in HFD (vehicle) group
[7]; 16-month old DIO C57BL/6J male mice on HFD, once a week, at 12 weeks
  Glucose tolerance in GTT: effectively reverse impaired glucose tolerance
[7]; 17-month old C57BL/6J male mice on chow diet, once a week, at 15 weeks
  Glucose tolerance in GTT: to a level better than mice in CD Young (vehicle) group; also recorded: effectively improve glucose tolerance
[7]; DIO C57BL/6J male mice on HFD, 300 U/week rhArg and/or 300 mg/kg metformin, after 7 weeks
  Glucose tolerance in GTT: significant improvement on glucose tolerance
[7]; DIO C57BL/6J male mice on HFD, 600 U once a week, after 3 weeks (reduced daily food intake experiment)
  Glucose tolerance in GTT: improved glucose tolerance
[7]; DIO C57BL/6J male mice on HFD, 600 U once a week, at 3 weeks (artificial IF experiment)
  Glucose tolerance in GTT: significant improvement in glucose tolerance by 3 weeks of treatment
[7]; DIO C57BL/6J male mice on HFD, about 600 U once a week, at 15 and 31 weeks
  Glucose tolerance in GTT: significant improvement in glucose tolerance to a level comparable with the lean control mice; also recorded: effectively reverse impaired glucose tolerance
[7]; DIO C57BL/6J male mice on HFD, rhArg weekly and/or 0.33 mg/day RA, after 7 weeks
  Glucose tolerance in GTT: cannot relieve glucose intolerance
[7]; DIO ICR female mice on HFD, once a week, at 16 and 30 weeks
  Glucose tolerance in GTT: Improved glucose tolerance
